Data: patent US8722732B2, “Oligomer-calcimimetic conjugates and related compounds” (Nektar Therapeutics, priority 2009, dated 2014)
Read-outs that look alike come from different tables or passages of the source. Blank lines part the entries; values can stand above or below the compound they belong to.

Legend:
[1] = Hydrolysis / pharmacokinetics in an in vivo dog study; conditions: male, beagle, plasma, po, 10 mg/kg
Description: (§1) Briefly, cinacalcet hydrochloride was administered orally to three male beagle dogs to provide a cinacalcet equivalent dose of 2.0 mg/kg. […] For both the cohorts, blood was collected at the following time points: 0 (predose); 10 min, 1, 2, 4, 8, 24, 48, 72, 120 and 144 h.

[2] = test system: plasma PTH (parathyroid hormone) levels; assay: In vivo screen, PTH-lowering effects in normal rats (plasma PTH by ELISA); design: species or system rat
Description: PEG-Cinacalcet calcimmetic effects were studied in PTH (parathyroid hormone)-lowering experiments in normal rats. Male SD rats (˜350 g) were IV dosed with different compounds at 1 mg/kg or orally (“PO”) cinacalcet at 10 mg/kg. Plasma samples were collected and prepared at different timepoints (up to 72 hours) after drug administration. The plasma PTH levels were quantified by ELISA.

[3] = Hydrolysis / pharmacokinetics in an in vivo rat study (plasma concentration-time profiles); conditions: male, po, 10 mg/kg
Description: (§2) Compound (15), Compound (20), Compound (16), Compound (21), Compound (24), Compound (25), Compound (28) and Compound (29), prepared in accordance with Examples, 5, 7, 6, 8, 9, 10, 11 and 12 respectively, were separately administered intravenously to four male rats to provide a cinacalcet equivalent dose of 1 mg/kg. Parent compound cinacalcet prepared in DMSO at 1 mg/kg was separately administrated intravenously to four male rats. For these cohorts, blood was collected at the following time points: 0 (predose), 2 minutes, 10 minutes, 1 hour, 2 hours, 4 hours, 8 hours, 24 hours, 48 hours and 72 hours following administration.

CYP2D6 = CYP2D6 (Homo sapiens, UniProt P10635); conditions: background statement; cited from earlier work
CYP2D6, sequence (P10635 whole entry): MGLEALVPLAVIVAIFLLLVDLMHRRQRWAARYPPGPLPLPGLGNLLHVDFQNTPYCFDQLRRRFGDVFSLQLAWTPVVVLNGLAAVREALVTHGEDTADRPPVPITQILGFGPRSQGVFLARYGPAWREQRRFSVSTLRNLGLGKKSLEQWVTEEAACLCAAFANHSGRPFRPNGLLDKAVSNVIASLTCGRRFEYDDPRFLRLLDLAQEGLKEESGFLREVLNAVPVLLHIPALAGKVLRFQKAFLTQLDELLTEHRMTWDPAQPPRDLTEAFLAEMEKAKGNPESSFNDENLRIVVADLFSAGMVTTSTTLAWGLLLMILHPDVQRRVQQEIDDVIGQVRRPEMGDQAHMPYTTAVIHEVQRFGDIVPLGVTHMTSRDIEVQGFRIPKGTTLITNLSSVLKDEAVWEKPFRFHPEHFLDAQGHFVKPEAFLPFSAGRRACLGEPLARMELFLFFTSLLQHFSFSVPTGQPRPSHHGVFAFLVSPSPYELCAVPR

[4] = rat, in vivo, 1 mg/kg; for AUCall / Clearance: iv
Description: as §2

[5] = test system: plasma PTH (parathyroid hormone) levels; assay: In vivo screen, rat chronic renal insufficiency (CRI) model, 5/6 nephrectomy; conditions: 5/6 Nx rats, 6-8 weeks post surgery
Description: The approach set forth in Example 14 is repeated except rats were surgically modified to mimic chronic renal insufficiency through the total removal of one kidney and ⅔ of the other kidney (a 5/6 nephrectomy or “5/6Nx”). […] Parathyroid hormone levels in normal rats are around 100 pg/ml and in 5/6 Nx rats they increase to 500-1000 pg/ml.

[6] = dog, in vivo
Description: as §1

[7] = Hydrolysis of compounds in pH 7.4 PBS buffer at 37° C. (HPLC); assay type: physicochemical
Description: The solution was placed into ten different HPLC vials and the HPLC vials were put into a 37° C. incubator. The samples were analyzed by HPLC at different timepoints. When hydrolysis occurred, HPLC confirmed that cinacalcet was released unaltered.

- AUC [1]: 17.8 ng·h/mL
- Cmax [1]: 6.01 ng/mL
- Vd/F [1]: 294 L/kg
- half-life [1]: 1.77 h
- AUC [3]: 690 ng·h/mL
- Cmax [3]: 97.4 ng/mL
- half-life [3]: 2.98 h
Compound: C[C@@H](NCCCc1cccc(C(F)(F)F)c1)c1cccc2ccccc12 [cinacalcet]
- PTH-lowering effect lasts up to ([2]; PO, 10 mg/kg): ~12 h
- CYP2D6 inhibition (CYP2D6): inhibitor of CYP2D6

Compound: Four-arm-PEG20k-D-valine-acyloxymethyl-carbamate-cinacalcet [Compound (29)]
- PTH-lowering effect (in words) ([2]; IV, 1 mg/kg): variable PTH-lowering effects
- time at which animal PTH levels return to baseline ([2]; IV, 1 mg/kg): ~24 h
- cinacalcet release after intravenous administration (in words) [4]: relatively significant amounts of cinacalcet release
- time for which release of cinacalcet continues following intravenous administration [4]: 8 to 12 h

Compound: Four-arm-PEG20k-L-leucine-acyloxymethyl-carbamate-cinacalcet [Compound (21)]
- PTH-lowering effect (in words) ([2]; IV, 1 mg/kg): significant PTH-lowering effects
- AUCall [4]: 5730 ng·min/mL
- Clearance [4]: 206 mL/min/kg

Compound: Four-arm-PEG20k-L-valine-acyloxymethyl-carbamate-cinacalcet [Compound (25)]
- PTH-lowering effect (in words) ([2]; IV, 1 mg/kg): variable PTH-lowering effects
- time at which animal PTH levels return to baseline ([2]; IV, 1 mg/kg): ~24 h
- cinacalcet release after intravenous administration (in words) [4]: relatively significant amounts of cinacalcet release
- time for which release of cinacalcet continues following intravenous administration [4]: 8 to 12 h

Compound: Four-arm-PEG20k-glycine-amide-cinacalcet [Compound (16)]
- reduction of PTH levels (in words) [5]: PTH levels are not reduced as significantly as Compounds (25), (28), and (29)

Compound: Four-arm-PEG30k-L-leucine-acyloxymethyl-carbamate-cinacalcet [Compound (31)]
- Cmax versus cinacalcet (in words) [6]: blunted
- half-life versus cinacalcet (in words) [6]: increased
- time up to which therapeutically relevant levels of cinacalcet are released ([6]; iv): up to 72 hours
- AUCall ([6]; iv, 1 mg/kg): 176 ng·h/mL
- Clearance ([6]; iv, 1 mg/kg): 43.33 mL/min/kg
- T1/2 ([6]; iv, 1 mg/kg): 0.432 h
- Vz(F) ([6]; iv, 1 mg/kg): 97.2 L/kg

Compound: mPEG10k-D-valine-acyloxymethyl-carbamate-cinacalcet [Compound (28)]
- PTH-lowering effect (in words) ([2]; IV, 1 mg/kg): variable PTH-lowering effects
- time at which animal PTH levels return to baseline ([2]; IV, 1 mg/kg): ~24 h
- cinacalcet release after intravenous administration (in words) [4]: relatively significant amounts of cinacalcet release
- time for which release of cinacalcet continues following intravenous administration [4]: 8 to 12 h
- t1/2 in PBS [7]: ~208 h

Compound: mPEG10k-L-isoleucine-acyloxymethyl-carbamate-cinacalcet [(36)]
- t1/2 in PBS [7]: ~470 h

Compound: mPEG10k-L-leucine-acyloxymethyl-carbamate-cinacalcet [Compound (20)]
- PTH-lowering effect (in words) ([2]; IV, 1 mg/kg): significant PTH-lowering effects
- PTH-lowering effect lasts up to ([2]; IV, 1 mg/kg): 24 to 48 h
- AUCall [4]: 11200 ng·min/mL
- Clearance [4]: 100 mL/min/kg
- t1/2 in PBS [7]: ~126 h

Compound: mPEG10k-L-valine-acyloxymethyl-carbamate-cinacalcet [Compound (24)]
- PTH-lowering effect (in words) ([2]; IV, 1 mg/kg): variable PTH-lowering effects
- time at which animal PTH levels return to baseline ([2]; IV, 1 mg/kg): ~24 h
- cinacalcet release after intravenous administration (in words) [4]: relatively significant amounts of cinacalcet release
- time for which release of cinacalcet continues following intravenous administration [4]: 8 to 12 h
- t1/2 in PBS [7]: ~317 h
